According to US20190024066A1:
“And” between values parts separate entries of the source, which are not always exact repeats. Identical values can stand only once.

How the values were obtained:
[1] = target: mouse neonatal Fc receptor (mFcRn) (mouse) (UniProt Q61559); test: SPR
[2] = target: CD20 on Raji cells (UniProt P11836); test: flow cytometry, Raji cells; […]
[3] = target: CD20 on Raji cells (UniProt P11836); test: flow cytometry, Raji cells; 10 µg/mL
[4] = target: CD20 on Raji cells (UniProt P11836); test: flow cytometry, Raji cells; 2.5 µg/mL
[5] = target: CD20 on Raji cells (UniProt P11836); test: flow cytometry, Raji cells; 0.625 µg/mL
[6] = target: CD20 on Raji cells (UniProt P11836); test: flow cytometry, Raji cells; 0.00061 µg/mL
[7] = target: CD20 on Raji cells (UniProt P11836); test: flow cytometry, Raji cells; 0.15625 µg/mL
[8] = target: CD20 on Raji cells (UniProt P11836); test: flow cytometry, Raji cells; 0.009766 µg/mL
[9] = target: CD20 on Raji cells (UniProt P11836); test: flow cytometry, Raji cells; 0.039063 µg/mL
[10] = target: FcγRIIIaV with a hexahistidine tag (R&D Systems) (human) (UniProt P08637); test: BLI, His-FcγRIIIaV on anti-penta-His sensor, steady-state model
[11] = target: human neonatal Fc receptor (hFcRn), biotinylated (human) (UniProt P55899); test: SPR, biotinylated hFcRn on streptavidin chip, IgG injected, pH 6.0
[12] = target: His-tagged FcγRIIb (R&D Systems) (human) (UniProt P31994); test: competition ELISA, His-FcγRIIb, competitor coated HZ 15C1; 1000 µg/ml
[13] = target: His-tagged FcγRIIb (R&D Systems) (human) (UniProt P31994); test: competition ELISA, His-FcγRIIb, competitor coated HZ 15C1; 3000 µg/ml
[14] = target: His-tagged FcγRIIb (R&D Systems) (human) (UniProt P31994); test: competition ELISA, His-FcγRIIb, competitor coated HZ 15C1; 4.12 µg/ml
[15] = target: His-tagged FcγRIIb (R&D Systems) (human) (UniProt P31994); test: competition ELISA, His-FcγRIIb, competitor coated HZ 15C1; 12.35 µg/ml
[16] = target: His-tagged FcγRIIb (R&D Systems) (human) (UniProt P31994); test: competition ELISA, His-FcγRIIb, competitor coated HZ 15C1; 37.04 µg/ml
[17] = target: His-tagged FcγRIIb (R&D Systems) (human) (UniProt P31994); test: competition ELISA, His-FcγRIIb, competitor coated HZ 15C1; 111.11 µg/ml
[18] = target: His-tagged FcγRIIb (R&D Systems) (human) (UniProt P31994); test: competition ELISA, His-FcγRIIb, competitor coated HZ 15C1; 333.33 µg/ml
[19] = target: His-tagged FcγRI (R&D Systems) (human) (UniProt P12314); test: competition ELISA, His-FcγRI, competitor coated anti-idiotype antibody; 2 µg/ml
[20] = target: His-tagged FcγRI (R&D Systems) (human) (UniProt P12314); test: competition ELISA, His-FcγRI, competitor coated anti-idiotype antibody; 10 µg/ml
[21] = target: His-tagged FcγRI (R&D Systems) (human) (UniProt P12314); test: competition ELISA, His-FcγRI, competitor coated anti-idiotype antibody; 50 µg/ml
[22] = target: His-tagged FcγRI (R&D Systems) (human) (UniProt P12314); test: competition ELISA, His-FcγRI, competitor coated anti-idiotype antibody; 0.4 µg/ml
[23] = target: His-tagged FcγRI (R&D Systems) (human) (UniProt P12314); test: competition ELISA, His-FcγRI, competitor coated anti-idiotype antibody; 0.08 µg/ml
[24] = target: His-tagged FcγRI (R&D Systems) (human) (UniProt P12314); test: competition ELISA, His-FcγRI, competitor coated anti-idiotype antibody; 0.016 µg/ml
[25] = target: His-tagged FcγRI (R&D Systems) (human) (UniProt P12314); test: competition ELISA, His-FcγRI, competitor coated anti-idiotype antibody; 0.0006 µg/ml
[26] = target: His-tagged FcγRI (R&D Systems) (human) (UniProt P12314); test: competition ELISA, His-FcγRI, competitor coated anti-idiotype antibody; 0.0032 µg/ml
[27] = target: His-tagged FcγRIIa (FcγRIIaR, R&D Systems) (human) (UniProt P12318); test: competition ELISA, His-FcγRIIaR, competitor coated HZ 15C1; concentration cell 2.22185
[28] = target: His-tagged FcγRIIa (FcγRIIaR, R&D Systems) (human) (UniProt P12318); test: competition ELISA, His-FcγRIIaR, competitor coated HZ 15C1; concentration cell 2.69897
[29] = target: His-tagged FcγRIIa (FcγRIIaR, R&D Systems) (human) (UniProt P12318); test: competition ELISA, His-FcγRIIaR, competitor coated HZ 15C1; concentration cell -0.16368
[30] = target: His-tagged FcγRIIa (FcγRIIaR, R&D Systems) (human) (UniProt P12318); test: competition ELISA, His-FcγRIIaR, competitor coated HZ 15C1; concentration cell -0.64016
[31] = target: His-tagged FcγRIIa (FcγRIIaR, R&D Systems) (human) (UniProt P12318); test: competition ELISA, His-FcγRIIaR, competitor coated HZ 15C1; concentration cell 0.313445
[32] = target: His-tagged FcγRIIa (FcγRIIaR, R&D Systems) (human) (UniProt P12318); test: competition ELISA, His-FcγRIIaR, competitor coated HZ 15C1; concentration cell 0.790496
[33] = target: His-tagged FcγRIIa (FcγRIIaR, R&D Systems) (human) (UniProt P12318); test: competition ELISA, His-FcγRIIaR, competitor coated HZ 15C1; concentration cell 1.267617
[34] = target: His-tagged FcγRIIa (FcγRIIaR, R&D Systems) (human) (UniProt P12318); test: competition ELISA, His-FcγRIIaR, competitor coated HZ 15C1; concentration cell 1.744731

Sequence of UniProt P11836 (P11836 whole entry): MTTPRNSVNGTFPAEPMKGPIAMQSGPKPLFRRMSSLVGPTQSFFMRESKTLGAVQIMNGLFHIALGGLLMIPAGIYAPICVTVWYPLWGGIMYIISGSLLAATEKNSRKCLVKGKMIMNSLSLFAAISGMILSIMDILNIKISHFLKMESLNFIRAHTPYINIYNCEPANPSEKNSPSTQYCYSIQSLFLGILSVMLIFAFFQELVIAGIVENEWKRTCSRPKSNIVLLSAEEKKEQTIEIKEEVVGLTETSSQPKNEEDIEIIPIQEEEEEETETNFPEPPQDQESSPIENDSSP
Sequence of UniProt P12314 (P12314 16-288 limits assumed): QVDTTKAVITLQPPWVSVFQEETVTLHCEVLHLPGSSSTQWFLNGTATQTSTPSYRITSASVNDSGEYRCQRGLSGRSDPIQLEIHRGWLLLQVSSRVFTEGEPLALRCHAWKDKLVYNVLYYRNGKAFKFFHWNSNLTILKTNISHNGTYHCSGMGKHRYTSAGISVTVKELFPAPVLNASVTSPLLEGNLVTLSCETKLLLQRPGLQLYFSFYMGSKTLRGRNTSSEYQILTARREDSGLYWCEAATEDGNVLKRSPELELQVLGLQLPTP
Sequence of UniProt P31994 (P31994 46-217 limits assumed): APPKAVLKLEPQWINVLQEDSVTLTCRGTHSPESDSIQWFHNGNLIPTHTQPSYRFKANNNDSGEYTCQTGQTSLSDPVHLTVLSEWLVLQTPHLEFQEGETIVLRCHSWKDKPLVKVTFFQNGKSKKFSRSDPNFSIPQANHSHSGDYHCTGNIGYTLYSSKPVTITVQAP
Sequence of UniProt P12318 (P12318 36-218 H167R limits assumed): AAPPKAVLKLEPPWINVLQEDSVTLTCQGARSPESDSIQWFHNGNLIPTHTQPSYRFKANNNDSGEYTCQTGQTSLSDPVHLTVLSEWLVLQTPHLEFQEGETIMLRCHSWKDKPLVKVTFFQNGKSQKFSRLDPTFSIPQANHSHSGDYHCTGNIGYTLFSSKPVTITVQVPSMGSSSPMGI
Sequence of UniProt Q61559 (Q61559 22-297 limits assumed): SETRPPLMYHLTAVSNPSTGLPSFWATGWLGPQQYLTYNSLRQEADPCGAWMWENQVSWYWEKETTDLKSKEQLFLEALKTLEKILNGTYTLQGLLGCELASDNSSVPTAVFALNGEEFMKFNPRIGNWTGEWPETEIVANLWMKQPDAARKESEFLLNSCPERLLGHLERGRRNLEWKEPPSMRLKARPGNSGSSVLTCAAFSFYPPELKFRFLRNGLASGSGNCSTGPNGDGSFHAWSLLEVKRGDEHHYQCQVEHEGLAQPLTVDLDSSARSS
Sequence of UniProt P55899 (P55899 24-297 limits assumed): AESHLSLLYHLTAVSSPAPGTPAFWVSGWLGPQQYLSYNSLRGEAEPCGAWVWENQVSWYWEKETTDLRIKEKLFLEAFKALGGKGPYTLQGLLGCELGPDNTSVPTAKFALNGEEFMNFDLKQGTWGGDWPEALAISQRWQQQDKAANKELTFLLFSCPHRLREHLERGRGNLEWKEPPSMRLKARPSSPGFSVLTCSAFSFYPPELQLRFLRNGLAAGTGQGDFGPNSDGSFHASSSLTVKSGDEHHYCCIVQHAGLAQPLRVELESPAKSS
Sequence of UniProt P08637 (P08637 17-208 F176V limits assumed): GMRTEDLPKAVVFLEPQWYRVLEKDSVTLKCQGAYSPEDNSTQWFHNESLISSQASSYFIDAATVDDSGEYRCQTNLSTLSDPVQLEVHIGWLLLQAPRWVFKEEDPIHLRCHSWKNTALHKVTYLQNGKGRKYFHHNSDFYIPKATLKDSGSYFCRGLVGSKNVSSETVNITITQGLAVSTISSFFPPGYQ

293S anti-CD20 (monoclonal anti-CD20 antibody obinutuzumab, GA101, produced in 293S cells)
Kd [1]: 0.258 nM | flow cytometry signal (name not given) [2]: 28.6 and 27.5 and 23.2 | flow cytometry signal (name not given) [3]: 2640 and 2560 and 2580 | flow cytometry signal (name not given) [4]: 2150 and 2180 and 1920 | flow cytometry signal (name not given) [5]: 1500 and 1520 and 1550 | flow cytometry signal (name not given) [6]: 14.1 and 12.3 and 11.3 | flow cytometry signal (name not given) [7]: 673 (2×) and 644 | flow cytometry signal (name not given) [8]: 76.4 and 79.7 and 72.2 | flow cytometry signal (name not given) [9]: 241 and 234 and 210 | Kd [10]: 500 nM | Kd [11]: 5.6 nM | absorbance at 450 nm [12]: 0.641 and 0.629 | absorbance at 450 nm [13]: 0.284 and 0.274 | absorbance at 450 nm [14]: 2.27 and 1.92 | absorbance at 450 nm [15]: 1.99 and 1.87 | absorbance at 450 nm [16]: 1.66 and 1.54 | absorbance at 450 nm [17]: 1.52 and 1.49 | absorbance at 450 nm [18]: 1.06 and 1.1 | absorbance at 450 nm [19]: 0.388 and 0.379 and 0.377 | absorbance at 450 nm [20]: 0.143 and 0.141 | absorbance at 450 nm [21]: 0.085 and 0.091 and 0.084 | absorbance at 450 nm [22]: 1.14 and 1.1 (2×) | absorbance at 450 nm [23]: 2.24 and 2.2 and 2.33 | absorbance at 450 nm [24]: 3.05 and 3.04 and 3.16 | absorbance at 450 nm [25]: 3.43 and 3.6 (2×) | absorbance at 450 nm [26]: 3.39 and 3.4 and 3.44 | absorbance at 450 nm [27]: 1.5 and 1.64 and 1.68 | absorbance at 450 nm [28]: 0.684 and 0.732 and 0.671 | absorbance at 450 nm [29]: 2.69 and 3.02 and 3.1 | absorbance at 450 nm [30]: 2.6 and 2.88 and 2.98 | absorbance at 450 nm [31]: 2.57 and 2.96 and 2.93 | absorbance at 450 nm [32]: 2.56 and 2.91 and 2.98 | absorbance at 450 nm [33]: 2.43 and 2.91 and 2.73 | absorbance at 450 nm [34]: 2.11 and 2.46 and 2.36
